The values below come from paper PMC4534855 (2015).

B1: Flag-eIF2β, wild type [S. cerevisiae] / eIF2α in yeast whole-cell extracts [yeast (endogenous in yeast whole-cell extracts)] (parent)
chain 1: MSSDLAAELGFDPALKKKKKTKKVIPDDFDAAVNGKENGSGDDLFAGLKKKKKKSKSVSADAEAEKEPTDDIAEALGELSLKKKKKKTKDSSVDAFEKELAKAGLDNVDAESKEGTPSANSSIQQEVGLPYSELLSRFFNILRTNNPELAGDRSGPKFRIPPPVCLRDGKKTIFSNIQDIAEKLHRSPEHLIQYLFAELGTSGSVDGQKRLVIKGKFQSKQMENVLRRYILEYVTCKTCKSINTELKREQSNRLFFMVCKSCGSTRSVSSIKTGFQATVGKRRRM
chain 2: MSTSHCRFYENKYPEIDDIVMVNVQQIAEMGAYVKLLEYDNIEGMILLSELSRRRIRSIQKLIRVGKNDVAVVLRVDKEKGYIDLSKRRVSSEDIIKCEEKYQKSKTVHSILRYCAEKFQIPLEELYKTIAWPLSRKFGHAYEAFKLSIIDETVWEGIEPPSKDVLDELKNYISKRLTPQAVKIRADVEVSCFSYEGIDAIKDALKSAEDMSTEQMQVKVKLVAAPLYVLTTQALDKQKGIEQLESAIEKITEVITKYGGVCNITMPPKAVTATEDAELQALLESKELDNRSDSEDDEDESDDE
B2: Flag-eIF2β, wild type [S. cerevisiae] / eIF2Bε in yeast whole-cell extracts [yeast (endogenous in yeast whole-cell extracts)] (parent)
chain 1: B1 chain 1
chain 2: MAGKKGQKKSGLGNHGKNSDMDVEDRLQAVVLTDSYETRFMPLTAVKPRCLLPLANVPLIEYTLEFLAKAGVHEVFLICSSHANQINDYIENSKWNLPWSPFKITTIMSPEARCTGDVMRDLDNRGIITGDFILVSGDVLTNIDFSKMLEFHKKMHLQDKDHISTMCLSKASTYPKTRTIEPAAFVLDKSTSRCIYYQDLPLPSSREKTSIQIDPELLDNVDEFVIRNDLIDCRIDICTSHVPLIFQENFDYQSLRTDFVKGVISSDILGKHIYAYLTDEYAVRVESWQTYDTISQDFLGRWCYPLVLDSNIQDDQTYSYESRHIYKEKDVVLAQSCKIGKCTAIGSGTKIGEGTKIENSVIGRNCQIGENIRIKNSFIWDDCIIGNNSIIDHSLIASNATLGSNVRLNDGCIIGFNVKIDDNMDLDRNTKISASPLKNAGSRMYDNESNEQFDQDLDDQTLAVSIVGDKGVGYIYESEVSDDEDSSTEACKEINTLSNQLDELYLSDDSISSATKKTKKRRTMSVNSIYTDREEIDSEFEDEDFEKEGIATVERAMENNHDLDTALLELNTLRMSMNVTYHEVRIATITALLRRVYHFIATQTLGPKDAVVKVFNQWGLLFKRQAFDEEEYIDLMNIIMEKIVEQSFDKPDLILFSALVSLYDNDIIEEDVIYKWWDNVSTDPRYDEVKKLTVKWVEWLQNADEESSSEEE

The variants in the first assay derive from B1. Put plainly: co-immunoprecipitation with FLAG affinity resin, quantified western. To be noted: three biological replicates, read off a plot.
As for chain 1 F217A Q221A, the response was 0.94 eIF2α:eIF2β.
chain 1 S202A K214A: the response was 0.96 eIF2α:eIF2β.

Another assay covers variants of B2. Described as above. Conditions: three biological replicates, read off a plot.
For chain 1 F217A Q221A, the response is 0.63 eIF2Bε:eIF2β.
On the same count and under the same terms, the same measure for chain 1 S202A K214A: 0.84 eIF2Bε:eIF2β.
